Laboratory results as given in publication PMC2199121.

Target: C57BL/6 and BALB/c IL-4Rs on transfected TF-1 cells (association rates told for both together)
Assay: radioligand binding

kon: 3.33e+06 to 4.33e+06 M⁻¹ s⁻¹
Substance: iodinated recombinant murine IL-4 (125I-IL-4) (from UniProt P07750 21-140) (ligand)
